Results reported in patent US7612163B1, “Prokineticin 2β peptide and its use” (Janssen Pharmaceutica N.V., priority 2004, dated 2009).

Key:
[1] = molecular target: T1, PKR2 (Homo sapiens, UniProt Q8NFJ6); assay: Radioligand competition binding assay (125I-PK2-f), PKR2 expressing COS-7 cells; parameters: The full-length cDNA coding regions for both PKR1 and PKR2 were PCR-amplified from human fetal brain cDNA; expressed in transfected cells; host or cells: COS-7 (transient, pCIneo); settings: FIG. 4B
Method: (§1) FIGS. 4A and 4B graphically illustrate that PKs bind the PKR1 and PKR2 with different affinities. COS-7 cells transiently expressing PKR1 or PKR2 were seeded to 96-well plates. ^125I-labeled PK2-f was added to each well at a final concentration of 100 pM. Different concentrations of PK1, PK2 or PK2β were added to the assays as the competitors. All assays were performed in triplicates. The results are mean values (±S.E.M) of triplicates. FIG. 4A provides the results of the binding assay using PKR1 expressing cells.
(§2) Expression, purification, and iodination of C-terminal FLAG-tagged PK2. C-terminal FLAG-tagged PK2 (PK2-f) was constructed as described (Soga et al., 2002). Two primers P9: ATCGAGAATTCGCCACCATGAGGAGCCTGTGCTGCGCCC (SEQ.ID.NO.:11) and P10: GGATCCCTACTTATCGTCGTCATCCTTATAATCCTTTTGGGCTAAACA (SEQ.ID.NO.:12) were used to amplify human whole brain cDNA (Clontech). The PCR-amplified PK2-f was cloned into a mammalian expression vector pCMV-sport1 (Invitrogen). The resulting clones were sequenced to confirm the identities and transfected into COS-7 cells using LipofectAmine (Invitrogen). Three days after transfection, the cell culture supernatant was collected and run through an ANTI-FLAG M2 agarose (Sigma) affinity column. The column was washed with PBS and eluted with […] Glycine HCl, pH 3.0. The eluted protein fraction was immediately neutralized with 1 M Tris-HCl, pH 8.0 and then further purified by reverse-phase HPLC using a C4 column (Vydac). The purified recombinant PK2-f protein was iodinated using Iodogen reagent (Pierce, Rockford, Ill.) and ^125I-NaI (PerkinElmer, Boston, Mass.) as described by Pierce. The iodinated PK2-f was purified by a G-50 (Amersham Pharmacia Biotech) gel filtration column.
(§3) Radio-Ligand Binding Assays. PKR1 and PKR2 in the expression vector pCIneo (Promega) were transfected into COS-7 cells using LipofectAmine (Invitrogen). […] After the plates were washed three times with ice cold PBS, Microscint-40 (Packard, Meriden, Conn.) was added and the plates were counted on a Topcount (Packard).

[2] = molecular target: T1, PKR2; assay: cAMP accumulation (cAMP [125I] FlashPlate) in HEK 293 cells co-expressing PKR2/Gs; assay type: cell-based; parameters: The full-length cDNA coding regions for both PKR1 and PKR2 were PCR-amplified from human fetal brain cDNA; expressed in transfected cells; host or cells: HEK293 (transient, pCIneo, co-transfected with Gs plasmid); settings: FIG. 8C
Method: FIGS. 8B and 8C illustrate results from HEK 293 cells co-expressing PKR1/Gs (FIG. 8B) or PKR2/Gs (FIG. 8C) stimulated with different PKs at various concentrations (the accumulated cAMP was measured by a cAMP [^125I] FlashPlate Assay kit; the results are mean values (±S.E.M) of triplicate experiments (legend: ▪, PK1; ▴, PK2; ▾, PK2β)).
In a different experiment, PKR1 and PKR2 in the expression vector pCIneo (Promega) were co-transfected with the Gs expression plasmid into HEK293 cells using LipofectAmine (Invitrogen). Two days after transfection, cells were detached with 10 mM EDTA in PBS, resuspended in Dulbecco's Modified Eagle's Medium/F12 (DMEM/F12) media, and then plated on 96-well plates at a density of 50,000 cells per well. Two hours after the seeding, cells culture medium was replaced with DMEM/F12 containing 2 mM isobutylmethylxanthine (Sigma) and incubated for 30 min. Different concentrations of PK1, PK2 or PK2β were added to cells and incubated for an additional 30 min in a final volume of 200 μl/well. The reaction was stopped and cAMP was extracted by adding 20 μl of 0.5 N HCl to each well. Cell culture media were tested for cAMP concentrations by the cAMP [^125I] FlashPlate Assay kit (PerkinElmer) as described by the manufacturer.

[3] = molecular target: T2, PKR1 (Homo sapiens, UniProt Q8TCW9); assay: Radioligand competition binding assay (125I-PK2-f), PKR1 expressing COS-7 cells; parameters: The full-length cDNA coding regions for both PKR1 and PKR2 were PCR-amplified from human fetal brain cDNA; expressed in transfected cells; host or cells: COS-7 (transient, pCIneo); settings: FIG. 4A
Method: as §1, §2, §3

[4] = molecular target: T1, PKR2; assay: Intracellular Ca2+ mobilization (FLIPR, Fluo-3) in PKR2 expressing HEK 293 cells; assay type: cell-based; parameters: The full-length cDNA coding regions for both PKR1 and PKR2 were PCR-amplified from human fetal brain cDNA; expressed in transfected cells; (transient, pCIneo)
Method: (§4) FIGS. 5A and 5B graphically illustrate that PKs stimulate Ca^2+ mobilization in HEK 293 cells expressing PKR1 or PKR2 at different potencies. HEK 293 cells transiently expressing PKR1 or PKR2 were seeded in 96-well plates, loaded with Ca^2+ dye Fluo-3 and then stimulated with different concentrations of PK1, PK2 or PK2β. The release of Ca^2+ was measured with a fluorescence imaging plate reader (FLIPR). The results are mean values (±S.E.M) of triplicate experiments. […] FIG. 5B provides the results for Ca^2+ mobilization in PKR2 expressing cells (legend: ▪, PK1; ▴, PK2; ▾, PK2β).
(§5) Intracellular Ca^2+ Mobilization Assays. PKR1 and PKR2 in the expression vector pCIneo (Promega) were transfected into HEK293 cells using LipofectAmine (Invitrogen). Two days after transfection, cells were detached using PBS containing 10 mM EDTA and seeded in poly-D-lysine coated 96-well black tissue culture plates (BD Biosciences).

[5] = molecular target: T2, PKR1; assay: Intracellular Ca2+ mobilization (FLIPR, Fluo-3) in PKR1 expressing HEK 293 cells; assay type: cell-based; parameters: The full-length cDNA coding regions for both PKR1 and PKR2 were PCR-amplified from human fetal brain cDNA; expressed in transfected cells; (transient, pCIneo)
Method: as §4, §5

T1 sequence (Q8NFJ6 whole entry): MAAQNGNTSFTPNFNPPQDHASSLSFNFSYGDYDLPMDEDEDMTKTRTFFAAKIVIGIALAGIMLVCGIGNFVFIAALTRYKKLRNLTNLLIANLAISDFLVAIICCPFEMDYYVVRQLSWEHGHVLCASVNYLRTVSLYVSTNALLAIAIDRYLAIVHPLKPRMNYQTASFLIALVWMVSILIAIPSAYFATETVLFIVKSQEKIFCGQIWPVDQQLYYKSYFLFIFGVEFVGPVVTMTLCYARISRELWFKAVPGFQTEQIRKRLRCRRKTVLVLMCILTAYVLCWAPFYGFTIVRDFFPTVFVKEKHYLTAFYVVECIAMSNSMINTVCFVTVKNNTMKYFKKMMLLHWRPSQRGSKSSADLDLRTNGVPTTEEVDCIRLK
T2 sequence (Q8TCW9 whole entry): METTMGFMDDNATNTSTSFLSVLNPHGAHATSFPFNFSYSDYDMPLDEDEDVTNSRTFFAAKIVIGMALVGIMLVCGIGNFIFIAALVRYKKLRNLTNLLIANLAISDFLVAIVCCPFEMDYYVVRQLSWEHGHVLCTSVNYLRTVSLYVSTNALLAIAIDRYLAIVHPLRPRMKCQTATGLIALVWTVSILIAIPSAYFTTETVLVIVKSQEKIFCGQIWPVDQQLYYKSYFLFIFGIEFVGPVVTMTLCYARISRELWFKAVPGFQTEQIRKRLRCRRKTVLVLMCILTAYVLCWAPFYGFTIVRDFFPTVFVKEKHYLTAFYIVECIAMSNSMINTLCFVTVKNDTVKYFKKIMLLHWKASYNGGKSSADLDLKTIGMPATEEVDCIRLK

Sequence: AVITGACDKDSQCGGGMCCAVSIWVK SIRICTPMGKLGDSCHPLTRKNNFGNGRQE (AVITGACDKDSQCGGGMCCAVSIWVKSIRICTPMGKLGDSCHPLTRKNNFGNGRQE; listed as Homo sapiens) [PK2β, 56-amino acid mature peptide processed from PK2L pro-peptide by proteolytic (furin) cleavage; recombinant from COS-7 cells]
- Binding to PKR2, in words [1]: marginal active at high concentrations
- cAMP accumulation in PKR2 expressing HEK293 cells, in words [2]: marginal activity at high concentrations
- Binding to PKR1, in words [3]: high affinities
- Receptor selectivity in Ca2+ mobilization, in words ([4]; PKR1 versus PKR2, FIGS. 5A, 5B): only active at PKR1
- Ca2+ response potency in PKR2-expressing cells, fold less potent than PK1 and PK2 ([4]; relative to PK1 and PK2): approximately 50 fold
- Agonist character at PKR1, in words [5]: potent full agonist
